Assay [1] deals with T1, human FcγRIIb extracellular domain with C-terminal His-tag (human, UniProt P31994 43-217).
T1 construct: extracellular domain; also called hFcγR IIb
T1 sequence (looked up): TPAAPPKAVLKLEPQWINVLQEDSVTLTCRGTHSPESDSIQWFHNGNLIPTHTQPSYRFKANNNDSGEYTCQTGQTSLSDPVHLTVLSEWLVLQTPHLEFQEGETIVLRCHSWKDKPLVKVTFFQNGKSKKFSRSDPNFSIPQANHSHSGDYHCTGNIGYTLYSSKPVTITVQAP
Briefly: SPR; FcγRIIb at 1000 nM, bound amount per unit captured Ab. For orientation: Surface plasmon resonance follows binding to a sensor surface in real time, without labels.
Description: (§1) The interaction between the generated antibodies and human FcγRs was analyzed by the following method using Biacore T200. 50 mM Na-Phosphate, 150 mM NaCl, 0.05% Tween20 (pH 7.4) was used as the running buffer, and the assay was performed at 25° C. For the sensor chips, Series S SA (GE Healthcare) chips onto which CaptureSelect Human Fab-lambda Kinetics Biotin Conjugate (Thermo Fisher Scientific) was immobilized were used. The antibodies of interest were captured onto these chips and each FcγR diluted in the running buffer was allowed to interact with them. Chips were regenerated with 10 mM Glycine-HCl (pH 1.5) and 25 mM NaOH, and assay was performed by repeatedly capturing antibodies. The dissociation constants KD (mol/L) for FcγRs of each antibody were calculated using Biacore T200 Evaluation Software 2.0, using the 1:1 Langmuir binding model for FcγRIa and FcγRIIIa and the steady state affinity model for FcγRIIa. For FcγRIIb, the binding amount of FcγRIIb per unit amount of antibody was calculated by correcting the binding amount of FcγRIIb obtained from the sensorgram obtained by the measurement with the amount of antibody captured onto the chip surface.

The target in assay [2] is T1, human FcγRIIb extracellular domain with …. In words: SPR; binding amount divided by that of 04H1637-G1m/04L1610-lam1.
Assay [3] deals with T2, human FcγRIa extracellular domain with C-terminal His-tag (human, UniProt P12314 16-292).
T2 construct: extracellular domain; also called hFcγR Ia; hFcγRIa
In words: SPR; KD of 04H1637-G1m/04L1610-lam1 divided by KD of variant.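 Note: biacore T200 SPR at 25 °C, antibodies captured on anti-Fab-lambda SA chip with receptor as analyte, running buffer pH 7.4 for FcγRs and pH 6.0 for FcRn.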
Description: as §1
(§2) The interaction between the generated antibodies and human FcRn was analyzed by the following method using Biacore T200. 50 mM Na-Phosphate, 150 mM NaCl, 0.05% Tween20 (pH 6.0) was used as the running buffer, and the assay was performed at 25° C. For the sensor chip, Series S SA (GE Healthcare) chips onto which CaptureSelect Human Fab-lambda Kinetics Biotin Conjugate (Thermo Fisher Scientific) was immobilized were used. The antibodies of interest were captured onto these chips and FcRn diluted in the running buffer was allowed to interact with them. Chips were regenerated with 10 mM Glycine-HCl (pH 1.5) and 25 mM NaOH, and assay was performed by repeatedly capturing antibodies. The dissociation constant for FcRn of each antibody was calculated using the steady state model, using Biacore T200 Evaluation Software 2.0.

The target in assay [4] is T3, human FcγRIIa R allotype extracellular domain with C-terminal His-tag (human, UniProt P12318 34-217).
T3 construct: extracellular domain; also called hFcγR IIa R
T3 sequence (looked up): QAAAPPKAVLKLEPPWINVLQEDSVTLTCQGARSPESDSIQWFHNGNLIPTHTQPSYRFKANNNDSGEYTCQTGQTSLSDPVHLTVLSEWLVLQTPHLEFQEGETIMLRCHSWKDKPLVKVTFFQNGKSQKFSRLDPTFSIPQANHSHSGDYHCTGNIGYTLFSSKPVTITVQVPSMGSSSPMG
The description is as above.
Description: as §1, §2

The target of assay [5] is T4, human FcγRIIIa F allotype extracellular domain with C-terminal His-tag (human, UniProt P08637 17-208).
T4 construct: extracellular domain; also called hFcγR IIIa F
The assay is described as above.
Description: as §1, §2

The target in assay [6] is T5, human FcγRIIa H allotype extracellular domain with C-terminal His-tag (human, UniProt P12318 34-217).
T5 construct: extracellular domain; also called hFcγR IIa H
T5 sequence (looked up): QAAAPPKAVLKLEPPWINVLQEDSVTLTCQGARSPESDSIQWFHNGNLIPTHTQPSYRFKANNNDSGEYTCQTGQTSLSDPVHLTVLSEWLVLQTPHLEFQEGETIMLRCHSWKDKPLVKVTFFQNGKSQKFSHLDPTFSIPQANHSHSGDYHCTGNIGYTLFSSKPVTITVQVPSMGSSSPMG
The assay is described as above.
Description: as §1, §2

The target of assay [7] is T6, human FcγRIIIa V allotype extracellular domain with C-terminal His-tag (human, UniProt P08637 17-208).
T6 construct: extracellular domain; also called hFcγR IIIa V
Described as above.
Description: as §1, §2

The target of assay [8] is T2, human FcγRIa extracellular domain with …. In words: SPR Biacore T200, Ab captured via Fab-lambda, pH 7.4, 25C.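 Note: antibodies captured on a streptavidin chip carrying biotinylated anti-Fab-lambda, with each FcγR injected as analyte in phosphate buffer. KD fitted by 1:1 Langmuir or steady-state model depending on receptor.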
Description: as §1
The target of assay [9] is T3, human FcγRIIa R allotype extracellular …. The description is as above.
Description: as §1
Assay [10] concerns the target T4, human FcγRIIIa F allotype extracellular …. The description is as above.
Description: as §1
The target of assay [11] is T5, human FcγRIIa H allotype extracellular …. The description is as above.
Description: as §1
Assay [12] addresses T6, human FcγRIIIa V allotype extracellular …. Described as above.
Description: as §1

Consider three molecules from US20260022175A1 (Chugai, published 2026).

T6 sequence (P08637 17-208 F176V): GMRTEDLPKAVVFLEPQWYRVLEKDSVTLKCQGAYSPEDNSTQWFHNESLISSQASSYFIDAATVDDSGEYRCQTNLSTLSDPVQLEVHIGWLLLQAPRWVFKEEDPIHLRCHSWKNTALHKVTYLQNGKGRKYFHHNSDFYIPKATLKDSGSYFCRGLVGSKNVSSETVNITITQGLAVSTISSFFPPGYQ
T2 sequence (P12314 16-292): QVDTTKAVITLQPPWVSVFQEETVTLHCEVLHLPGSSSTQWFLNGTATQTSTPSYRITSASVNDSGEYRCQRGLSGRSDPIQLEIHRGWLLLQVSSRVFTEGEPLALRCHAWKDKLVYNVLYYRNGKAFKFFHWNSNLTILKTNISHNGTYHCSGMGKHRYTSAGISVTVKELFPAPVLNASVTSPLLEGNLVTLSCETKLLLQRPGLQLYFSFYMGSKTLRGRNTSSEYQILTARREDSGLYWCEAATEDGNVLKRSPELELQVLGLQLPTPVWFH
T4 sequence (P08637 17-208): as the sequence (P08637 17-208 F176V) above, with V160F counted along it

B1: 04H1637-Kn125/04L1610-lam1//04H1637-Hl076/04L1610-lam1 (antibody, human IgG1, lambda)
heavy 1: QVQLVESGGGLVKPGGSLRLSCAASGFTFSSKTMNWVRQAPGKGLEWVSSISTQSHYIYYAESVRGRFTISRDNAKNSLYLQMNSLRAEDTAVYYCARYGKREDMLWVFDYWGQGTLVTVSSASTKGPSVFPLAPSSKSTSGGTAALGCLVKDYFPEPVTVSWNSGALTSGVHTFPAVLQSSGLYSLSSVVTVPSSSLGTQTYICNVNHKPSNTKVDKKVEPKSCDKTHTCPPCPAPEYQWGPMVFLFPPKPKDTLMISRTPEVTCVVVDVSDEEPEVKFNWYVDGVEVHNAKTKPREEQYNATYRVVSVLTVLHQDWLNGKEYKCKVSNKALPAPIEKTISKAKGQPREPQVCTLPPSRDELTKNQVSLWCLVKGFYPSDIAVEWESNGQPENNYKTTPPVLDSDGSFFLYSKLTVDKSRWQQGNVFSCSVMHEALHNHYTQKSLSLSP
heavy 2: QVQLVESGGGLVKPGGSLRLSCAASGFTFSSKTMNWVRQAPGKGLEWVSSISTQSHYIYYAESVRGRFTISRDNAKNSLYLQMNSLRAEDTAVYYCARYGKREDMLWVFDYWGQGTLVTVSSASTKGPSVFPLAPSSKSTSGGTAALGCLVKDYFPEPVTVSWNSGALTSGVHTFPAVLQSSGLYSLSSVVTVPSSSLGTQTYICNVNHKPSNTKVDKKVEPKSCDKTHTCPPCPAPELLGGPSVFLFPPKPKDTLMISRTPEVTCVVVDVSHEEPEVKFNWYVDGVEVHNAKTKPREEQYNSTYRVVSVLTVLHQDWLNGKEYKCKVSNDALPMPIEETISKAKGQPREPQVYTLPPSRCELTKNQVSLSCAVKGFYPSDIAVEWESNGQPENNYKTTPPVLDSDGSFFLVSKLTVDKSRWQQGNVFSCSVMHEALHNHYTQKSLSLSP
light: QSALTQPPSASGSPGQSVTISCEGPSTGVGDYNWVHWYQQHPGKAPKLMIYFTSKKPSGVPDRFSGSKSGNTASLTVSGLQAEDEADYYCQTYAAPLGPMFGGGTKLTVLGQPKAAPSVTLFPPSSEELQANKATLVCLISDFYPGAVTVAWKADSSPVKAGVETTTPSKQSNNKYAASSYLSLTPEQWKSHRSYSCQVTHEGSTVEKTVAPTECS
notes: Heterodimerized antibody, Fc variant of WO 2013/002362; also called 04H1637-Kn125/04L1610-lam1//04H1637-H1076/04L1610-lam1
Broadly, the Kd is the constant that tells how readily two partners part at equilibrium. A low value points to a tighter complex. As to B1, the Binding amount in assay [1] was 0.007. This molecule also registered a Relative binding amount in assay [2] of 0.9. The “Relative value to KD between G1m and hFcγRs” value (“Relative value” below) in [3] turned out to be 1.2; in [4], 1.6; in [5] it was 406; in assay [6] it was 3.6; in assay [7], 126. In addition, the Kd in [8] stood at 0.04 nM; in [9], 1200 nM; in assay [10] it was 3.4 nM; in [11], 410 nM; in assay [12], 1.9 nM.

B2: 04H1637-Kn462/04L1610-lam1//04H1637-Hl445/04L1610-lam1 (antibody, human IgG1, lambda)
heavy 1: QVQLVESGGGLVKPGGSLRLSCAASGFTFSSKTMNWVRQAPGKGLEWVSSISTQSHYIYYAESVRGRFTISRDNAKNSLYLQMNSLRAEDTAVYYCARYGKREDMLWVFDYWGQGTLVTVSSASTKGPSVFPLAPSSKSTSGGTAALGCLVKDYFPEPVTVSWNSGALTSGVHTFPAVLQSSGLYSLSSVVTVPSSSLGTQTYICNVNHKPSNTKVDKKVEPKSCDKTHTCPPCPAPEFQWGPMVFLFPPKPKDVLMISRTPEVTCVVVDVSDEEPEVKFNWYVDGVEVHNAKTKPREEQYNATYRVVSVLPVLHQDWLNGKEYKCKVSNDALPAPIEKTISKAKGQPREPQVCTLPPSRDELTKNQVSLWCLVKGFYPSDIAVEWESNGQPENNYKTTPPVLDSDGSFFLYSKLTVDKSRWQQGNVFSCSVMHEALHNHYTQKSLSLSP
heavy 2: QVQLVESGGGLVKPGGSLRLSCAASGFTFSSKTMNWVRQAPGKGLEWVSSISTQSHYIYYAESVRGRFTISRDNAKNSLYLQMNSLRAEDTAVYYCARYGKREDMLWVFDYWGQGTLVTVSSASTKGPSVFPLAPSSKSTSGGTAALGCLVKDYFPEPVTVSWNSGALTSGVHTFPAVLQSSGLYSLSSVVTVPSSSLGTQTYICNVNHKPSNTKVDKKVEPKSCDKTHTCPPCPAPELLAGPSVFLFPPKPKDVLMISRTPEVTCVVVDVSHEEPEVKFNWYVDGVEVHNAKTKPREEQYNATYRVVSVLPVLHQDWLNGKEYKCKVSNDALPKPDEETISKAKGQPREPQVYTLPPSRCELTKNQVSLSCAVKGFYPSDIAVEWESNGQPENNYKTTPPVLDSDGSFFLVSKLTVDKSRWQQGNVFSCSVMHEALHNHYTQKSLSLSP
light: QSALTQPPSASGSPGQSVTISCEGPSTGVGDYNWVHWYQQHPGKAPKLMIYFTSKKPSGVPDRFSGSKSGNTASLTVSGLQAEDEADYYCQTYAAPLGPMFGGGTKLTVLGQPKAAPSVTLFPPSSEELQANKATLVCLISDFYPGAVTVAWKADSSPVKAGVETTTPSKQSNNKYAASSYLSLTPEQWKSHRSYSCQVTHEGSTVEKTVAPTECS
notes: Heterodimerized antibody; also called 04H1637-Kn462/04L1610-lam1//04H1637-H1445/04L1610-lam1
In [1], B2 displayed a Binding amount of 0.03. The molecule also came in with a Relative binding amount in assay [2] of 3.7. The “Relative value” value in assay [3] stood at 0.6; in assay [4], 18.7; in assay [5], 382; in assay [6] it was 37.5; in assay [7], 131. For the same molecule, the Kd is 0.076 nM in assay [8]; 110 nM in assay [9]; 3.6 nM in [10]; 39 nM in assay [11]; 1.8 nM in assay [12].

B3: 04H1637-Kn461/04L1610-lam1//04H1637-Hl443/04L1610-lam1 (antibody, human IgG1, lambda)
heavy 1: QVQLVESGGGLVKPGGSLRLSCAASGFTFSSKTMNWVRQAPGKGLEWVSSISTQSHYIYYAESVRGRFTISRDNAKNSLYLQMNSLRAEDTAVYYCARYGKREDMLWVFDYWGQGTLVTVSSASTKGPSVFPLAPSSKSTSGGTAALGCLVKDYFPEPVTVSWNSGALTSGVHTFPAVLQSSGLYSLSSVVTVPSSSLGTQTYICNVNHKPSNTKVDKKVEPKSCDKTHTCPPCPAPEFQWGPMVFLFPPKPKDVLMISRTPEVTCVVVDVSDEEPEVKFNWYVDGVEVHNAKTKPREEQYNATYRVVSVLPVLHQDWLNGKEYKCKVSNDALPAPEEKTISKAKGQPREPQVCTLPPSRDELTKNQVSLWCLVKGFYPSDIAVEWESNGQPENNYKTTPPVLDSDGSFFLYSKLTVDKSRWQQGNVFSCSVMHEALHNHYTQKSLSLSP
heavy 2: QVQLVESGGGLVKPGGSLRLSCAASGFTFSSKTMNWVRQAPGKGLEWVSSISTQSHYIYYAESVRGRFTISRDNAKNSLYLQMNSLRAEDTAVYYCARYGKREDMLWVFDYWGQGTLVTVSSASTKGPSVFPLAPSSKSTSGGTAALGCLVKDYFPEPVTVSWNSGALTSGVHTFPAVLQSSGLYSLSSVVTVPSSSLGTQTYICNVNHKPSNTKVDKKVEPKSCDKTHTCPPCPAPELLAGPSVFLFPPKPKDVLMISRTPEVTCVVVDVSHEEPEVKFNWYVDGVEVHNAKTKPREEQYNATYRVVSVLPVLHQDWLNGKEYKCKVSNDALPAPEEETISKAKGQPREPQVYTLPPSRCELTKNQVSLSCAVKGFYPSDIAVEWESNGQPENNYKTTPPVLDSDGSFFLVSKLTVDKSRWQQGNVFSCSVMHEALHNHYTQKSLSLSP
light: QSALTQPPSASGSPGQSVTISCEGPSTGVGDYNWVHWYQQHPGKAPKLMIYFTSKKPSGVPDRFSGSKSGNTASLTVSGLQAEDEADYYCQTYAAPLGPMFGGGTKLTVLGQPKAAPSVTLFPPSSEELQANKATLVCLISDFYPGAVTVAWKADSSPVKAGVETTTPSKQSNNKYAASSYLSLTPEQWKSHRSYSCQVTHEGSTVEKTVAPTECS
notes: Heterodimerized antibody; also called 04H1637-Kn461/04L1610-lam1//04H1637-H1443/04L1610-lam1
The molecule B3 registered a Binding amount in [1] of 0.025. In [2], this molecule showed a Relative binding amount of 3.1. The “Relative value” value in assay [3] is 1.2; in assay [4], 10.7; in assay [5], 616; in assay [6], 11.1; in assay [7], 226. The Kd is 0.042 nM in assay [8]; 190 nM in assay [9]; 2.2 nM in [10]; 130 nM in assay [11]; 1.1 nM in assay [12].
